This passage reports SEAP activity (HRRE-SEAP reporter in GT1-7 cells) results from patent US20050049193A1.

This assay addresses OB-Rb, full-length (long isoform) leptin receptor expressed on transfected GT1-7 cells (mouse), P48356. As to the kind of experiment: cell-based or functional assay.

Chain of OB-Rb, full-length (long isoform) leptin receptor expressed on transfected GT1-7 cells (mouse), P48356 (P48356 22-1162): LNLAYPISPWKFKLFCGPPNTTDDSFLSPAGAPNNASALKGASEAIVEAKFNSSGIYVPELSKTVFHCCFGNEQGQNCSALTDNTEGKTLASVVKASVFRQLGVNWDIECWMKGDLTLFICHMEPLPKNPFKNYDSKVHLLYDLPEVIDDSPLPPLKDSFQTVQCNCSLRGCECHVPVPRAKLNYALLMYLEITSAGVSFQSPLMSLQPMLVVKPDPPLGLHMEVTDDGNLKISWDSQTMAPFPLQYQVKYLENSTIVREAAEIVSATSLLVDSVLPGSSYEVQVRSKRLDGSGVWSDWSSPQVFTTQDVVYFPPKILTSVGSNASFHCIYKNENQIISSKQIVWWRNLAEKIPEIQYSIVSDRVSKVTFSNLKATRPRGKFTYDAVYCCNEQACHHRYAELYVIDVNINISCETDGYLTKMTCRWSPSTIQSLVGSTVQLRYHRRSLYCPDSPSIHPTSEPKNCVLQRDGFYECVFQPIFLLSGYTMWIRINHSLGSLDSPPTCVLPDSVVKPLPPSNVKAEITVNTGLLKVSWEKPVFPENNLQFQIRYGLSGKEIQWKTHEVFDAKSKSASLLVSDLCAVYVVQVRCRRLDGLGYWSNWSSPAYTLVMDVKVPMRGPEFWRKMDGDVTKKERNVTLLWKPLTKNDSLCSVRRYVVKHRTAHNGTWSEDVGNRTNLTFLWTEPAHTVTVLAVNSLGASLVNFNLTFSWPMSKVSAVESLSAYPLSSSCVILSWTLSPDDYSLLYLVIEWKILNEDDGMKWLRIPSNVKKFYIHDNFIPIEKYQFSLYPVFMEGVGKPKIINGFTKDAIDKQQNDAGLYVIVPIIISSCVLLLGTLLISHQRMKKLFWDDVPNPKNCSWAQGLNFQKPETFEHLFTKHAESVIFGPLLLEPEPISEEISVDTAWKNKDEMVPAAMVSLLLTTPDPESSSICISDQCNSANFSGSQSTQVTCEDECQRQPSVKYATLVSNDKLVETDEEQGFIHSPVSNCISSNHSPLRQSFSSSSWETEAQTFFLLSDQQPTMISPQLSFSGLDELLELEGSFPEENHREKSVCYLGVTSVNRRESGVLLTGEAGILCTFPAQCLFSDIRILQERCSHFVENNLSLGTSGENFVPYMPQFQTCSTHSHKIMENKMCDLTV

B1: recombinant mouse leptin, P41160 22-167 (ligand)
chain: VPIQKVQDDTKTLIKTIVTRINDISHTQSVSAKQRVTGLDFIPGLHPILSLSKMDQTLAVYQQVLTSLPSQNVLQIANDLENLRDLLHLLAFSKSCSLPQTSGLQKPESLDGVLEASLYSTEVVALSRLQGSLQDILQQLDVSPEC
B1 came in with an SEAP activity (HRRE-SEAP reporter in GT1-7 cells) of 11 fold.
